Results on ten molecules are retold here after patent publication US20240301076A1 (CEPHALON, published 2024).

Bounds are passed on as bounds.

Assay [1] has as its target T1, human CXCR2 (human, UniProt P25025 1-360).
T1 construct: also called CXC chemokine receptor 2; hCXCR2
T1 sequence: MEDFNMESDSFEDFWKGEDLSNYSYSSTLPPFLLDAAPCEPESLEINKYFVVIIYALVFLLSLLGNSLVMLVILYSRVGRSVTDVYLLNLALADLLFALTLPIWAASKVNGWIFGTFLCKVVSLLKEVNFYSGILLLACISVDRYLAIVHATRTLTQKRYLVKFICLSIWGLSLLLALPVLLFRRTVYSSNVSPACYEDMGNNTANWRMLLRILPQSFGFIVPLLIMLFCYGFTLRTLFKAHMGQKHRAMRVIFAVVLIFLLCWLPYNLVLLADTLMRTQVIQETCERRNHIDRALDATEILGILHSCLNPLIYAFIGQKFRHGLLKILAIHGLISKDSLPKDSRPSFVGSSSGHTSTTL
The assay is described as follows: flow cytometry, transfected Expi293F cells. As to the method: (§1) Harvested cells were resuspended in FACS buffer (1×PBS+0.5% (w/v) bovine serum albumin (BSA)+2 mM EDTA pH 7.2). Approximately 2×10⁵ cells were added per well in a 96-well round-bottomed plate. Cells were pelleted by centrifugation at 400 g for 5 mins at 4° C. and supernatants discarded. 25 μL of each test antibody or control antibody was added to the cells and incubated for 30 minutes at 4° C. Cells were washed twice in 100 μL FACS buffer followed by centrifugation at 400 g for 5 mins at 4° C.
(§2) For detection, 50 μL of secondary antibody (Table 2) was added to relevant samples. Commercially available antibodies that bound to transfected CXCR family members were used as positive controls to ensure that the cells were expressing the receptors. Cells were washed twice in 200 μL of FACS buffer followed by centrifugation at 400 g for 5 mins at 4° C. Before sample acquisition, cells were resuspended in 100 μL of FACS buffer. Samples were acquired using the high throughput sampler on a FACSCanto™ II cytometer (Beckton-Dickinson).
(§3) These antibody variable regions were then generated by gene synthesis and subcloned into mammalian expression vectors as described in General Methods. Antibodies were produced by co-expression of heavy and light chain plasmids in Expi293F™ cells and purified by protein A column chromatography as described in General Methods. Where several heavy and/or light chains were identified from the same hybridoma cells, each heavy chain was paired with each light chain and the resulting antibodies given suffix a, b, c, etc. Purified antibodies were desalted into Sorensen's PBS pH 5.8 and tested by flow cytometry for binding to Expi293F™ cells transfected with human CXCR2 or human CXCR1 and mock transfected Expi293F™ cells.
A general note: A flow cytometer gives signals particle by particle.

The next assay addresses T2, human CXCR1 (human, UniProt P25024 1-350).
T2 sequence: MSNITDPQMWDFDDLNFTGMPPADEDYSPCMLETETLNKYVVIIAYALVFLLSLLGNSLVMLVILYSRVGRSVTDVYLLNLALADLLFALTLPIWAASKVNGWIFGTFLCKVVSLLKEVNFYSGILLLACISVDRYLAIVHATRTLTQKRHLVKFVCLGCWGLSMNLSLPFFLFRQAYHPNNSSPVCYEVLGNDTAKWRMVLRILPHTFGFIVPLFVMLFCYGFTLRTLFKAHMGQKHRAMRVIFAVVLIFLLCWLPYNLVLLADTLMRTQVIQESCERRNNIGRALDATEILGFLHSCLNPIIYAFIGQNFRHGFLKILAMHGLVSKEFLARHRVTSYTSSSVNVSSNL
Put plainly: flow cytometry, transfected Expi293F cells. On the procedure:
as §1, §2, §3

Assay [2] concerns the target T1, human CXCR2. The assay is described as follows: flow cytometry, CXCR2-transfected Expi293F cells. On the procedure: as §1, §2
A further six heavy chain combinational variants comprising four or more amino acid substitutions were produced as provided in Table 12. […] Each heavy chain was co-expressed with light chain c (SEQ ID NO:110) to produce an antibody variant. Antibodies were purified and tested for CXCR2 binding activity as described in General Methods.

The target in assay [3] is T1, human CXCR2. The assay is described as follows: cell-based or functional assay.

B1: BKO-10G10 (antibody, human IgG4 S228P, lambda, V domains shown)
VH: QLQLQESGPGLVKPSETLSLTCTVSGGSIRRSSYYWGWIRQPPGKGLEWIGSFYNSGNTYYKPSLKSRVAISVDTPKNQFSLKLSSVTAADTAVYYCARGYSSGGFDPWGQGTLVTVSS
VL: QSALTQPASVSGSPGQSITISCTGTSSDVGGYNYVSWCQQHPGKAPKIMIFDVSNRPSGVSNRFSGSKSGNTASLTISGLQAEDEADYYCSSYTSSSTWVFGGGTRLTVLG
notes: recombinant human IgG4 S228P, lambda
Regarding B1, the binding result with human CXCR2 [1] is “binds”; with human CXCR1, “no binding”.

B2: BKO-8C4 (antibody, human IgG4 S228P, lambda, V domains shown)
VH: QLQLQESGPGLVKPSETLSLTCTVSGGSIRTSSYYWGWIRQPPGKGLEYIGSIYYSGTTYYNPSLKSRVTMSVDTSKNQFSLKLSSVTAADTAVYYCARHGRVREVPPFDYWGQGTLVTVSS
VL: SSELTQDPAVSVALGQTVRITCQGDSLRYYYASWYQQKPGQAPVLVIYDENSRPSGIPDRFSGSSSGNTASLRITGTQAEDEADYYCNSRDTSGNHWAFGGGTKLTVLG
notes: as for B1
As for B2, the binding result with human CXCR2 [1] is “binds”; with human CXCR1 it was “no binding”.

B3: BKO-4A8 combinatorial variant 102c (antibody, human IgG4 S228P, lambda, V domains shown)
VH: EVQLLESGGGLVQPGGSLRLSCAASGFTFSSSTQSWVRQPPGKGLEWVSAISGRGRSTYYADSVKGRFTISRDNSKNTLYLQMNSLRAEDTAVYYCAIQEGYWGQGILVTVSS
VL: QSALTQPPSASGSPGQSVTISCIGTSSDVGGYNYVSWYQQHPGKAPKLMIYEVSKRPSGVPDRFSGSKSGNTASLTVSGLQAEDEADYYCSSYAGSNNFGVFGGGTKLTVLG
notes: IgG4 S228P, lambda
A word on the EC50: it is the concentration needed to bring the measured effect to its halfway point. As for B3, in the assay with human CXCR2 [2], the half-maximal effective concentration (EC50) is 8.7 nM, the “Max binding (MFI Percent of 4A8 WT)” value was found to be 53% and the “Max binding (MFI)” value was 33000 MFI.

B4: BKO-8B6 (antibody, human IgG4 S228P, lambda, V domains shown)
VH: EVQLLESGGGLVQPGGSLRLSCAASGFTFSSNAMSWVRQAPGKGLEWVSAISNSGRSTYYADSVKGRFTISRDSSKNTLYLLMNSLRAEDSAVYYCAIKLGYWGQGSLVTVSS
VL: QSALTQPPSASGSPGQSVTISCTGTSSDVGGYNYVSWYQQHPGKAPKLMMYEVSKRPSGVPDRFSGSKSGNTASLTVSGLQAEDEADYYCSSYAGSDNFGVFGGGTRLTVLG
notes: as for B1
For the molecule B4, the binding result is recorded as “binds” in the assay with human CXCR2 [1] and “no binding” with human CXCR1.

B5: BKO-7H8_b (antibody, human IgG4 S228P, lambda, V domains shown)
VH: EVQLLESGGGLVQPGGSLRLSCAASGYTFTSSTMSWVRQAPGKGLEWVTAISGRGGRTYYADSVKGRFTISRDNSKNTLYLQMNSLRAEDTAVYYCAIQLGNWGQGILVTVSS
VL: QSALTQPPSASGSPGQSVTISCTGTSSDIGGYNYVSWYQQHPGKAPKLVIYEVNMRPSGVPARFSGSKSGNTASLTVSGLQAEDEADYYCSSYAGNDNFGVFGGGTKLSVLG
notes: as for B1
B5: the binding result was “binds” with human CXCR2 [1] and “no binding” with human CXCR1.

B6: BKO-9A8 (antibody, human IgG4 S228P, lambda, V domains shown)
VH: EVQLLESGGGLVQTGGSLRLSCAASGFTFSSNTMSWVRQAPGKGLEWVSAISGSGGRTYYVDSVKGRFTISRDNSKNTLYLQMHSLRAEDTAVYYCAIQLGSWGQGILVTVSS
VL: QSALTQPPSASGSPGQSVTISCTGTSSDVGAYNYVSWYQQHPGKAPKLMIYEVTKRPSGVPDRFSGSKSGNTASLTVSGLQAEDEADYYCSSYAGNNNFGVFGGGTKLTVLG
notes: as for B1
B6: the binding result in the assay with human CXCR2 [1] is listed as “binds”; with human CXCR1 it was “no binding”.

B7: BKO-4A8-104c (antibody, human IgG4 S228P, lambda, V domains shown)
VH: EVQLLESGGGLVQPGGSLRLSCAASGFTFSSSTQSWVRQPPGKGLEWVSAISGSGGSTYYADSVKGRFTISRDNSKNTLYLQMNSLRAEDTAVYYCAIQKGYWGQGILVTVSS
VL: QSALTQPPSASGSPGQSVTISCIGTSSDVGGYNYVSWYQQHPGKAPKLMIYEVSKRPSGVPDRFSGSKSGNTASLTVSGLQAEDEADYYCSSYAGSNNFGVFGGGTKLTVLG
notes: IgG4 S228P, lambda
As to B7, in the assay with human CXCR2 [3], the “CXCL1 Fold Improvement over 4A8 WT” value was found to be 0.43 fold; the “CXCL1 IC50, Tango assay” value is 2.17 nM; the “CXCL8 Fold Improvement over 4A8 WT” value amounted to 0.88 fold; the “CXCL8 IC50, Tango assay” value is 0.75 nM. Further, in the assay with human CXCR2 [2], the EC50 is 6.45 nM, the “Max binding (MFI Percent of 4A8 WT)” value was 54% and the “Max binding (MFI)” value was 45100 MFI.

B8: BKO-4A8-103c (antibody, human IgG4 S228P, lambda, V domains shown)
VH: EVQLLESGGGLVQPGGSLRLSCAASGFTFSSSTQSWVRQPPGKGLEWVSAISGSGGSTYYADSVKGRFTISRDNSKNTLYLQMNSLRAEDTAVYYCAIQMGYWGQGILVTVSS
VL: QSALTQPPSASGSPGQSVTISCIGTSSDVGGYNYVSWYQQHPGKAPKLMIYEVSKRPSGVPDRFSGSKSGNTASLTVSGLQAEDEADYYCSSYAGSNNFGVFGGGTKLTVLG
notes: IgG4 S228P, lambda
Take B8: in the assay with human CXCR2 [3], the “CXCL1 Fold Improvement over 4A8 WT” value turned out to be 2.55 fold; the “CXCL1 IC50, Tango assay” value worked out at 2.4 nM; the “CXCL8 Fold Improvement over 4A8 WT” value stood at 0.53 fold; the “CXCL8 IC50, Tango assay” value worked out at 1.25 nM. Further, in the assay with human CXCR2 [2], the EC50 was determined as 5.15 nM, the “Max binding (MFI Percent of 4A8 WT)” value was 72% and the “Max binding (MFI)” value is 44400 MFI.

B9: BKO-4A8-105c (antibody, human IgG4 S228P, lambda, V domains shown)
VH: EVQLLESGGGLVQPGGSLRLSCAASGFTFSSSTQSWVRQPPGKGLEWVSAISGSGGSTYYADSVKGRFTISRDNSKNTLYLQMNSLRAEDTAVYYCAIQAGYWGQGILVTVSS
VL: QSALTQPPSASGSPGQSVTISCIGTSSDVGGYNYVSWYQQHPGKAPKLMIYEVSKRPSGVPDRFSGSKSGNTASLTVSGLQAEDEADYYCSSYAGSNNFGVFGGGTKLTVLG
notes: IgG4 S228P, lambda
Take B9: in the assay with human CXCR2 [3], the “CXCL1 Fold Improvement over 4A8 WT” value was 0.24 fold; the “CXCL1 IC50, Tango assay” value worked out at 4 nM; the “CXCL8 Fold Improvement over 4A8 WT” value stood at 0.36 fold; the “CXCL8 IC50, Tango assay” value is 1.85 nM. Further, in the assay with human CXCR2 [2], the EC50 stood at 5.73 nM, the “Max binding (MFI Percent of 4A8 WT)” value stood at 52% and the “Max binding (MFI)” value was determined as 42700 MFI.

B10: BKO-4A8 combinatorial variant 106c (antibody, human IgG4 S228P, lambda, V domains shown)
VH: EVQLLESGGGLVQPGGSLRLSCAASGFTFSSSTQSWVRQPPGKGLEWVSAISGSGGSTYYADSVKGRFTISRDNSKNTLYLQMNSLRAEDTAVYYCAIQEGYWGQGILVTVSS
VL: QSALTQPPSASGSPGQSVTISCIGTSSDVGGYNYVSWYQQHPGKAPKLMIYEVSKRPSGVPDRFSGSKSGNTASLTVSGLQAEDEADYYCSSYAGSNNFGVFGGGTKLTVLG
notes: IgG4 S228P, lambda
As for B10, in the assay with human CXCR2 [2], the EC50 is above 100 nM and the “Max binding (MFI)” value came out at 11600 MFI.
